# Measurements published in patent US20260125711, “RNA-GUIDED NUCLEASES AND ACTIVE FRAGMENTS AND VARIANTS THEREOF AND METHODS OF USE” (Life Edit Therapeutics, Inc., published 2026).
# Positions count from the first letter of the chain named. Names and notes keep the numbering of the source.
# T1: LPG10204
# T1 chain: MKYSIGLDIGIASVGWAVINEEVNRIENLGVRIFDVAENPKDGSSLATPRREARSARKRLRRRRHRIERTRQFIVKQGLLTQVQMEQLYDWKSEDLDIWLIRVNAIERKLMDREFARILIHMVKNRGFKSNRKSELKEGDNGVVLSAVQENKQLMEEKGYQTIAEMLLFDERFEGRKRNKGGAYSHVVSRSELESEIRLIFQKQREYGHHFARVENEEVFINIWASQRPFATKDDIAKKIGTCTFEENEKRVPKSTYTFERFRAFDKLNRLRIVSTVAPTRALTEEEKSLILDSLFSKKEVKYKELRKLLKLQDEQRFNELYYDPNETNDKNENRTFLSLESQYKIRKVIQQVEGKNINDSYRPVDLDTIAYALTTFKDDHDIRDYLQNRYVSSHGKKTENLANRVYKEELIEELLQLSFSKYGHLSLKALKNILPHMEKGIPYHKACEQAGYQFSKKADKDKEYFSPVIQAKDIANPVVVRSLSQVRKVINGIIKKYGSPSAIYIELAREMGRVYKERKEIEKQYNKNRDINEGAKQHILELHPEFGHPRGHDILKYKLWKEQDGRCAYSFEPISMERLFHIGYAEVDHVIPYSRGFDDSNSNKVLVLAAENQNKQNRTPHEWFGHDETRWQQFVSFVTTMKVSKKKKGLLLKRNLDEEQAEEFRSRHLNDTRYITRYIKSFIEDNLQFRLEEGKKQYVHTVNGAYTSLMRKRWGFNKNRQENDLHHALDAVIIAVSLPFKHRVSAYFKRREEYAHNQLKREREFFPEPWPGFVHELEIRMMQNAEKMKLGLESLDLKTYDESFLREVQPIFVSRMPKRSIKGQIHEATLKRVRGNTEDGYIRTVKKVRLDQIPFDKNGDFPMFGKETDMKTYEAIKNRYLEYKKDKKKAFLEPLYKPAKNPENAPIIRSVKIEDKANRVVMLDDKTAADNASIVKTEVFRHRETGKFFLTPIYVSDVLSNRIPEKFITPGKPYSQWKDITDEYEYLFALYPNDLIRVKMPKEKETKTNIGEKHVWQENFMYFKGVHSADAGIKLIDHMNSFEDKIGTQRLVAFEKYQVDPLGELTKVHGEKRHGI
# T2: LPG10208
# T2 chain: T1 chain with Q450E, S467L
# T3: LPG10168 (Bacillus toyonensis)
# T3 chain: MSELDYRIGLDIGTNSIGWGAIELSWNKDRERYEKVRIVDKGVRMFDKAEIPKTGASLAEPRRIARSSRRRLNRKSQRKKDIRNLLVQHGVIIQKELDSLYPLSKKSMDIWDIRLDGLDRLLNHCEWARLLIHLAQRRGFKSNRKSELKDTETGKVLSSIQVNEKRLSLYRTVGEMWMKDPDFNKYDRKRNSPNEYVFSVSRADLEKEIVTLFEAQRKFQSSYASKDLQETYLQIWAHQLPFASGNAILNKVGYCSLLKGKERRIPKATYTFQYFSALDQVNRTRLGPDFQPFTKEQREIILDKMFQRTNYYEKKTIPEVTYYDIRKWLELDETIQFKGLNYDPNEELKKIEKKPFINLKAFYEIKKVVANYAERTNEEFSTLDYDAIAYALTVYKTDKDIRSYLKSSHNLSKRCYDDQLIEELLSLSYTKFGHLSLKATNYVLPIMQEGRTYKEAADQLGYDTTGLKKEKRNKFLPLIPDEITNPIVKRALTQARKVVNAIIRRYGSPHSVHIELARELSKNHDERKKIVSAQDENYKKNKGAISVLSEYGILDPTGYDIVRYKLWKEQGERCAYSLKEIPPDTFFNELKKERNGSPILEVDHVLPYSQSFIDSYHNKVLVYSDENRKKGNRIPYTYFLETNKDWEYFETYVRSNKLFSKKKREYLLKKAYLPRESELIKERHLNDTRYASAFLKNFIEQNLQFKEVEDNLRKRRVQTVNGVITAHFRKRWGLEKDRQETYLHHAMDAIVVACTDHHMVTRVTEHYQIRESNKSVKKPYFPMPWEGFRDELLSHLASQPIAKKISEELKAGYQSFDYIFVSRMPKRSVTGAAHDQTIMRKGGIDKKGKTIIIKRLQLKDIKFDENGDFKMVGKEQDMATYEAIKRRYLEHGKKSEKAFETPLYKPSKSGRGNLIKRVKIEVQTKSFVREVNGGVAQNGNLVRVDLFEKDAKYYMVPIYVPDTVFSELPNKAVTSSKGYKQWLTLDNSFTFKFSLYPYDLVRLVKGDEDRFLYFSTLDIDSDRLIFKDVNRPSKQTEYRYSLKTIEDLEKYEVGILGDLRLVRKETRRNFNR
# T4: LPG10167 (Bacillus toyonensis)
# T4 chain: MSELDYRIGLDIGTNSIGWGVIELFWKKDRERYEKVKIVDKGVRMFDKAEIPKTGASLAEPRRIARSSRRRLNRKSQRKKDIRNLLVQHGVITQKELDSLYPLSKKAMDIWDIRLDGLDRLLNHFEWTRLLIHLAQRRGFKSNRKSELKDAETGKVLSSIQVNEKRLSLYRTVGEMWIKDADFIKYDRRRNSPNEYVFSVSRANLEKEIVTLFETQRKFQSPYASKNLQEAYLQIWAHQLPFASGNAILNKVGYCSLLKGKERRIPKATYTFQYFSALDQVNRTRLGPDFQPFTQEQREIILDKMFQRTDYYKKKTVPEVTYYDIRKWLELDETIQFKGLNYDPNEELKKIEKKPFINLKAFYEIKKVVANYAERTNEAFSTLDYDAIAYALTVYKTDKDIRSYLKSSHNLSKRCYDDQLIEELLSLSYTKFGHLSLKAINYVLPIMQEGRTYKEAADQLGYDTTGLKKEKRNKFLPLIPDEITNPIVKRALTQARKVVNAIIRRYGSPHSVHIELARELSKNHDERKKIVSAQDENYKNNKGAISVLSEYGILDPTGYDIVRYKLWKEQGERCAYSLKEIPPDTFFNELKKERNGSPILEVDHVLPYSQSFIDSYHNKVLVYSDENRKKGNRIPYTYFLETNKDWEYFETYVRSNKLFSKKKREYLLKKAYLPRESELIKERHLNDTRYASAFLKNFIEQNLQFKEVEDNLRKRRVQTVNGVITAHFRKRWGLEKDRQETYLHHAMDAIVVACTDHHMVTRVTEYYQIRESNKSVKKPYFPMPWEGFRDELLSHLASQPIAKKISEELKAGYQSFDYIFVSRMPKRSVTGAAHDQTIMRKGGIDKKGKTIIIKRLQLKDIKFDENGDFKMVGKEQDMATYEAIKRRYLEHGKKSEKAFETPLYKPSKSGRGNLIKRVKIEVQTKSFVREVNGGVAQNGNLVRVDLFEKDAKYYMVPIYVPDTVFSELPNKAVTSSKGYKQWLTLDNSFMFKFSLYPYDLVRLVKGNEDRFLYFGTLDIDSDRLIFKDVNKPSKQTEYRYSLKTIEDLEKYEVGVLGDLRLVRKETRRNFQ
# B1: SGN005374 ; SGN005374 target (ssRNA ; dsDNA)
# RNA: AGUAGCGCGAGCACAGCUAAGGCCAGCCAUAAUUCCUCCAAAGGGAGUUAUUAUGGUAAGGCAUUAUGCCGUGGCGUUGGGGAUCGCCUACAUCCGAUUAGAUCGGAUUCUCCCUAAAAAUGACUAACUUUGUUUAGUCAUUUUUUU
# DNA 1: AGTAGCGCGAGCACAGCTAAGGCCA
# DNA 2: TGGCCTTAGCTGTGCTCGCGCTACT
# B2: SGN005374 ; SGN005374 target (LPG10208) (ssRNA ; dsDNA)
# RNA: B1 RNA
# DNA 1: AGTAGCGCGAGCACAGCTAAGGCCA
# DNA 2: TGGCCTTAGCTGTGCTCGCGCTACT
# B3: SGN003668 ; B2M target SGN003668 (ssRNA ; dsDNA)
# RNA: GGAGAGACUCACGCUGGAUAGCCUCGUCAUAGUUCCAUUAAAGCCAUUAAAGAAUGGCUUUGAUGUUUCUAUGAUAAGGGUUUCGGCCCGUGGCGUUGGGGAUCGCCUGCCCAUUUCAAUGGGCUUCUCCCCAUUU
# DNA 1: GGAGAGACTCACGCTGGATAGCCTC
# DNA 2: GAGGCTATCCAGCGTGAGTCTCTCC
# B4: SGN003667 ; B2M target SGN003667 (ssRNA ; dsDNA)
# RNA: AAGAGAGAGUAGCGCGAGCACAGCUGUCAUAGUUCCAUUAAAGCCAUUAAAGAAUGGCUUUGAUGUUUCUAUGAUAAGGGUUUCGGCCCGUGGCGUUGGGGAUCGCCUGCCCAUUUCAAUGGGCUUCUCCCCAUUU
# DNA 1: AAGAGAGAGTAGCGCGAGCACAGCT
# DNA 2: AGCTGTGCTCGCGCTACTCTCTCTT
# B5: SGN005382 ; SGN005382 target (ssRNA ; dsDNA)
# RNA: CUCUCUUUCUGGCCUGGAGGCUAUCGCCAUAAUUCCUCCAAAGGGAGUUAUUAUGGUAAGGCAUUAUGCCGUGGCGUUGGGGAUCGCCUACAUCCGAUUAGAUCGGAUUCUCCCUAAAAAUGACUAACUUUGUUUAGUCAUUUUUUU
# DNA 1: CTCTCTTTCTGGCCTGGAGGCTATC
# DNA 2: GATAGCCTCCAGGCCAGAAAGAGAG
# B6: SGN003669 ; B2M target SGN003669 (ssRNA ; dsDNA)
# RNA: UGACAGCAUUCGGGCCGAGAUGUCUGUCAUAGUUCCAUUAAAGCCAUUAAAGAAUGGCUUUGAUGUUUCUAUGAUAAGGGUUUCGGCCCGUGGCGUUGGGGAUCGCCUGCCCAUUUCAAUGGGCUUCUCCCCAUUU
# DNA 1: TGACAGCATTCGGGCCGAGATGTCT
# DNA 2: AGACATCTCGGCCCGAATGCTGTCA
# B7: SGN005373 ; SGN005373 target (LPG10208) (ssRNA ; dsDNA)
# RNA: UAGCCUCCAGGCCAGAAAGAGAGAGGCCAUAAUUCCUCCAAAGGGAGUUAUUAUGGUAAGGCAUUAUGCCGUGGCGUUGGGGAUCGCCUACAUCCGAUUAGAUCGGAUUCUCCCUAAAAAUGACUAACUUUGUUUAGUCAUUUUUUU
# DNA 1: TAGCCTCCAGGCCAGAAAGAGAGAG
# DNA 2: CTCTCTCTTTCTGGCCTGGAGGCTA
# How the values were obtained:
# Settings in all cases: tags: N-terminal SV40 NLS and 3xFLAG; C-terminal nucleoplasmin NLS
# [1] = molecular target: T1, LPG10204; experiment: cell_activity; PAM SEQ ID NOs 146, 147; HEK293T
# Method: (§1) Guide RNAs targeting several genes were designed for robustness testing of multiple RGNs in HEK293T cells by plasmid delivery. These guides were tested under optimal editing conditions for HEK293T cells in a 96-well plate which involved seeding 10,000-15,000 cells on day 1, lipofection using Lipofectamine 3000 on day 2, and genomic DNA extraction on day 4. […] Then, 0.3 μl of Lipofectamine 3000 diluted in Opti-MEM was added to the plasmid mixture and incubated for 15 mins before adding to cells.
# [2] = molecular target: T2, LPG10208; experiment: cell_activity; PAM SEQ ID NOs 146, 147; HEK293T
# Method: as §1
# [3] = molecular target: T3, LPG10168; experiment: cell_activity; PAM nnnnCC; HEK293T
# Method: (§2) Several of the constructs described above were introduced into mammalian cells. One day prior to transfection, 1×10⁵ HEK293T cells (Sigma) were plated in 24-well dishes in Dulbecco's modified Eagle medium (DMEM) plus 10% (vol/vol) fetal bovine serum (Gibco) and 1% Penicillin-Streptomycin (Gibco). The next day when the cells were at 50-60% confluency, 500 ng of an RGN expression plasmid plus 500 ng of a single gRNA expression plasmid were co-transfected using 1.5 μL of Lipofectamine 3000 (Thermo Scientific) per well, following the manufacturer's instructions. After 48 hours of growth, total genomic DNA was harvested using a genomic DNA isolation kit (Machery-Nagel) according to the manufacturer's instructions.
# (§3) Additionally, products from PCR #2 containing Illumina overhang sequences underwent library preparation following the Illumina 16S Metagenomic Sequencing Library protocol. Deep sequencing was performed on an Illumina Mi-Seq platform by a service provider (MOGene). Typically, 200,000 of 250 bp paired-end reads (2×100,000 reads) are generated per amplicon. […] Output alignments were hand-curated to confirm insertion and deletion sites as well as identify microhomology sites at the recombination sites. All experiments were performed in human cells.
# [4] = molecular target: T4, LPG10167; experiment: cell_activity; PAM nnnnCC; HEK293T
# Method: as §2, §3
binder,measurement,setting,value
B1,activity,[1],37.5 % indels
B2,activity,[2],47.2 % indels
B3,activity,[3],0.61 % indels
B4,activity,[4],1.16 % indels
B5,activity,[1],25.5 % indels
B6,activity,[3],3.68 % indels
B7,activity,[2],37.5 % indels
